Measured values: patent publication US20120058118A1 (Boehringer Ingelheim, published 2012)
Where two headings read alike, the source gives them in different places. Each block holds one binder with its values, some of them ahead of it.

Columns and labels:
[1] = target: T1, His.Xa.Abeta1-28.GS.p38 fusion protein; assay: size exclusion chromatography, Experion quantification (0.87 µM and 0.86 µM)
T1 construct: His-tag, factor Xa site, A-beta(1-28), GS linker, murine p38 alpha; the SEC experiment names it only A-beta(1-28)-p38 fusion protein; also called A-beta(1-28)-p38 fusion protein; A-beta-p38 fusion protein
T1 chain: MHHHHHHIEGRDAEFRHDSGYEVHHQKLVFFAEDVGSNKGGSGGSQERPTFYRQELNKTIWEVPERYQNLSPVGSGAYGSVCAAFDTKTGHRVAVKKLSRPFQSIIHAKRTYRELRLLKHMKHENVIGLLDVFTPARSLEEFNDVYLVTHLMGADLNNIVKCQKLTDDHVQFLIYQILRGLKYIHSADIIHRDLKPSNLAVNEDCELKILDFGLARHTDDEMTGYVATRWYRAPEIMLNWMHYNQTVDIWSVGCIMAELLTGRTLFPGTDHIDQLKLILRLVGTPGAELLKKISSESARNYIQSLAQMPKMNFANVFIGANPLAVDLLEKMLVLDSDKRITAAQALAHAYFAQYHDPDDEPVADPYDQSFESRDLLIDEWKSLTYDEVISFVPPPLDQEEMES
Description: Determination of the binding mode using size exclusion chromatography: Size exclusion chromatography (SEC) separates molecules according to differences in size as they pass through a gel filtration medium packed in a column. The binding mode of biparatopic VHH constructs to their target can be identified by analysing the protein complex after incubating a 1:2 molar ratio of the respective VHH construct and the target protein. Therefore the mixture will be separated by SEC and the contents of the resulting peaks is analyzed by protein gel electrophoresis. […] The gel filtration produced two peaks which are further analyzed by SDS-PAGE using the automated electrophoresis station Experion (Bio-Rad, USA) and the appropriate chip (Pro260 Chip, Bio-Rad, USA).

[2] = target: T2, human A-beta(1-40) peptide, monomeric (BAM) (human, biotin at the C-terminus in capture ELISA, SPR and TR-FRET; not biotinylated where coated directly (Example 7)); assay: BAM ELISA
T2 construct: synthetic peptide (Anaspec), TFA/HFIP treated to give monomer; also called monomeric A-beta

[3] = target: T2, human A-beta(1-40) peptide, monomeric …; assay: TR-FRET competition; extrapolated curve
[4] = target: T2, human A-beta(1-40) peptide, monomeric …; assay: BAM ELISA; remark: listed apart in the source
[5] = target: T2, human A-beta(1-40) peptide, monomeric …; assay: TR-FRET competition, labelled ABII60A10; extrapolated curve
[6] = target: T3, aggregated A-beta(1-40) peptide (BAA) (human); assay: BAA ELISA
T3 construct: also called A-beta peptide aggregates

[7] = target: T3, aggregated A-beta(1-40) peptide (BAA); assay: BAA ELISA; remark: listed apart in the source
[8] = target: T2, human A-beta(1-40) peptide, monomeric …; assay: cell-based or functional assay
[9] = target: T2, human A-beta(1-40) peptide, monomeric …; assay: ELISA, peptide coated at 2 µg/ml, anti-myc detection
[10] = target: T4, mouse A-beta(1-40) peptide (mouse); assay: as above
T4 construct: Bachem peptide coated directly; also called rodent A-beta(1-40)
T4 peptide: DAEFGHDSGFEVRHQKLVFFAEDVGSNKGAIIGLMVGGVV

[11] = target: T5, human A-beta peptide (residues 1-24) (human); assay: crystal structure
T5 construct: used for co-crystallisation; also called A-beta(1-24)
Description: The complex is concentrated by diafiltration to a concentration of 4 mg/ml. Crystallization trials are set up as sitting drop vapour diffusion experiments by mixing 200 nl of protein with 200 nl of reservoir solution against a reservoir volume of 100 μl. […] Data are collected at the beamline 6SA of the swiss light source at the Paul-Scherrer Institute in Villigen, Switzerland.

[12] = target: T6, soluble APP-alpha (UniProt P05067-4 18-612, limits assumed, biotinylated where used as labelled partner); assay: TR-FRET: competition with labelled ABII320 for biotinylated sAPPalpha; non-labeled ABII035 as competitor; biotinylated sAPPalpha
T6 construct: bought; also called sAPPalpha
Description: Two independent experiments are performed applying a dilution series of the competitor compounds.

[13] = target: T2, human A-beta(1-40) peptide, monomeric …; assay: TR-FRET competition, mean IC50
[14] = target: T2, human A-beta(1-40) peptide, monomeric …; assay: ELISA, format not stated
[15] = target: T2, human A-beta(1-40) peptide, monomeric …; assay: TR-FRET competition; labelled competitor not given
[16] = target: T2, human A-beta(1-40) peptide, monomeric …; assay: ABII002 TR-FRET competition assay
[17] = target: T4, mouse A-beta(1-40) peptide; assay: ELISA EC50
[18] = target: T2, human A-beta(1-40) peptide, monomeric …; assay: 42D4 TR-FRET assay (labelled ABII42D4)
[19] = target: T2, human A-beta(1-40) peptide, monomeric …; assay: 60A10 TR-FRET assay (labelled ABII60A10)
[20] = target: T2, human A-beta(1-40) peptide, monomeric …; assay: ABII42D4 TR-FRET assay
[21] = target: T2, human A-beta(1-40) peptide, monomeric …; assay: TR-FRET competition, mean IC50; mean IC50 of Table XII
[22] = target: T2, human A-beta(1-40) peptide, monomeric …; assay: TR-FRET competition and SPR
[23] = target: T2, human A-beta(1-40) peptide, monomeric …; assay: TR-FRET competition, labelled ABII42D4
[24] = target: T2, human A-beta(1-40) peptide, monomeric …; assay: ABII050 TR-FRET competition assay
[25] = target: T7, pGlu-A-beta(1-28), C-terminally biotinylated (human, pyroglutamate formed from the glutamate at position 3 (N-terminus); biotin at the C-terminus); assay: SPR on captured C-terminally biotinylated pGlu-A-beta(1-28), 1:1 model
T7 construct: printed as pGlu-A-beta(1-28), while the text says that the first two N-terminal residues are missing; range 3-28 is my reading; also called pyroglutamyl-Abeta
Excerpt: Association and dissociation curves can be fitted using a 1:1 interaction model and an accurate KD value can be determined.

[26] = target: T8, A-beta(1-28) peptide (human); assay: KinExA, A-beta(1-28) in solution; PEGylated ABII322
T8 construct: Anaspec peptide, solution antigen in KinExA
Description: The KinExA experiments are conducted with a KinExA 3000 and the KinExA Pro software (Sapidyne Instruments Inc., USA) at room temperature (ca. 21° C.). PBS with 0.02% NaN₃ is used as running buffer. For all experiments, antigen is serially diluted into PBS with 0.1% BSA and 0.02% NaN₃ having a constant VHH concentration. The mixtures of antigen and VHH are incubated for 24 h at room temperature prior to measurement. The flow rate of the samples and the labeling antibody for all experiments is 0.25 ml/min.
This antibody is used at a volume of 500 μl and a concentration of 0.5 μg/ml in PBS with 0.1% BSA and 0.02% NaN₃.
The equilibrium titration data are fit to a 1:1 binding model using KinExA Pro software Version 1.0.3 (Sapidyne Instruments Inc., USA). […] The sample volume is 5 ml each. […] The sample volume is 11 ml each.

[27] = target: T2, human A-beta(1-40) peptide, monomeric …; assay: TR-FRET competition
[28] = target: T2, human A-beta(1-40) peptide, monomeric …; assay: TR-FRET competition, labelled ABII60A10
[29] = target: T2, human A-beta(1-40) peptide, monomeric …; assay: SPR, captured C-terminally biotinylated A-beta(1-40)
[30] = target: T2, human A-beta(1-40) peptide, monomeric …; assay: SPR on captured biotinylated A-beta(1-40)

T6 sequence (P05067 other isoform, or with tags, fused parts or gaps limits assumed): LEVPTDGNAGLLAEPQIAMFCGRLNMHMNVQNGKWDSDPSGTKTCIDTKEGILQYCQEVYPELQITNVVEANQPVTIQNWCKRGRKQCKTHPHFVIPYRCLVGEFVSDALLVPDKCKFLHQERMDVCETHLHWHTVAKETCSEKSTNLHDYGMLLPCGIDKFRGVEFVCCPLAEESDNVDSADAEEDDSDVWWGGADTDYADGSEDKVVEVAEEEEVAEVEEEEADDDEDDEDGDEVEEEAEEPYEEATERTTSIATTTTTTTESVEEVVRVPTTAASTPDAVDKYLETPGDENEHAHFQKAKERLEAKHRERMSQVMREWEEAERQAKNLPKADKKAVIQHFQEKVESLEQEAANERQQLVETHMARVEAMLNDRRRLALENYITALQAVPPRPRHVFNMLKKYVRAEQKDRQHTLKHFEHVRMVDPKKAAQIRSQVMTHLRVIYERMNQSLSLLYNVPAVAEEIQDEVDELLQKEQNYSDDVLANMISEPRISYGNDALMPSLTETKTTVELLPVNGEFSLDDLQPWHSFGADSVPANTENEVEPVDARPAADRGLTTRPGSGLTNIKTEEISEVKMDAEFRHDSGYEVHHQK

B1: 60A10-27GS-42D4-Alb (designed binder)
chain: EVQLVESGGGLVQAGGSLRLSCAASGRTFNNYNMGWFRQAPGKEREFVAAVSRSGVSTYYADSVKGRFTISRDNAKNAVYLQMNSLKPEDTAIYYCGAAYRGTAINVRRSYDSWGQGTQVTVSSGGGSGGGGSGGGGSGGGGSGGGGSGGGEVQLVESGGGLVLAGGSLRLSCVHSGPTFSTDTMGWFRQAPGKEREFVAAVTWNSGRTNYADSVKGRFTVSRDNTRNAAYLQMSGLKDEDTAVYYCTAHRLVVGGTSVGDWRYWGQGTQVTVSS
notes: calculated molecular weight 95 kDa; also called biparatopic VHH fused to human serum albumin; not shown: human serum albumin, fused C-terminally
ratio of A-beta(1-28)-p38 to 60A10-27GS-42D4-Alb in the complex [1]: ~1

B3: ABII035 (VHH)
VHH: EVQLLESGGGLVQPGGSLRLSCVHSGPTFRTDTMGWFRQAPGKGREFVAAVTWNSGRINYADSVKGRFTISRDNSKNTAYLQMNSLRPEDTAVYYCAAHRFVVGGNRVEDWRYWGQGTLVTVSS
notes: humanized variant of ABII002
EC50 [9]: 2.5 nM
EC50 [10]: 5.7 nM
binding result [11]: binds
IC50 [12]: 25.6 nM
IC50 [13]: 4 nM
fold difference of EC50 against the 2D2 and 2G6 VHHs [14]: > 50 fold
IC50 [15]: 4 nM
Aggregation inhibition (% inhibition at 26 µM) [8]: 54%
IC50 [16]: 3.5 nM
fold difference mouse against human A-beta [17]: 2.2 fold

B4: ABII42D4-9GS-ABII42D4 (designed binder)
chain: EVQLVESGGGLVLAGGSLRLSCVHSGPTFSTDTMGWFRQAPGKEREFVAAVTWNSGRTNYADSVKGRFTVSRDNTRNAAYLQMSGLKDEDTAVYYCTAHRLVVGGTSVGDWRYWGQGTQVTVSSGGGGSGGGGEVQLVESGGGLVLAGGSLRLSCVHSGPTFSTDTMGWFRQAPGKEREFVAAVTWNSGRTNYADSVKGRFTVSRDNTRNAAYLQMSGLKDEDTAVYYCTAHRLVVGGTSVGDWRYWGQGTQVTVSS
notes: VHH dimer with two identical domains; also called bivalent ABII42D4
IC50 [18]: 16 nM
IC50 [19]: > 1000 nM
fold improved IC50 against monovalent ABII42D4 [20]: 3.2 fold

B5: ABII111B5_M107R = ABII002 (VHH)
VHH: EVQLVESGGGLVLAGGSLRLSCVHSGPTFRTDTMGWFRQAPGKEREFVAAVTWNSGRINYADSVKGRFTVSRDNTRNAAYLQMSGLKDEDTAVYYCTAHRFVVGGNRVEDWRYWGQGTQVTVSS
notes: myc-tagged in ELISA
EC50 [9]: 1.8 nM
EC50 [10]: 3.3 nM
IC50 [21]: 2 nM
fold improvement of IC50 and KD over original ABII42D4 [22]: > 10 fold
IC50 [23]: 2.9 nM
IC50 [16]: 2.9 nM
fold difference mouse against human A-beta [17]: 1.8 fold

Now from value to binder:

EC50 [2]: 15.8 nM
IC50 [3]: 404 nM
EC50 [4]: 15.8 nM
IC50 [5]: 404 nM
EC50 [6]: 4.7 nM
EC50 [7]: 4.7 nM
Aggregation inhibition (% inhibition at 26 µM) [8]: 69%
B2: reference VHH 2D2 (VHH)
VHH: AVQLVDSGGGLVQAGGSLRLSCAVSGGTFSSIGMGWFRQAPGKEREFVGAISRSGDSTYYADSVKGRFTISRDGAKNTVYLQMNSLKDEDTAVYYCAGRPAGTAINIRRSYNYWGQGTQVTVSS
notes: from WO2006/40153, made and purified like the other VHHs

IC50 [24]: 0.17 nM
Kd [25]: 1 nM
Kd [26]: 0.6 pM
IC50 [16]: 0.14 nM
B6: ABII322-PEG40 (designed binder)
chain: VQLLESGGGLVQPGGSLRLSCAASGRTFNNYNMGWFRQAPGKGREFVAAVSRSGVSTYYADSVKGRFTISRDNSKNTVYLQMNSLRPEDTAVYYCAAAYRGTAINVRRSYSSWGQGTLVTVSSGGGSGGGGSGGGGCGGGGSGGGGSGGGEVQLLESGGGLVQPGGSLRLSCVHSGPTFRTDTMGWFRQAPGKGREFVAAVTWNSGRINYADSVKGRFTISRDNSKNTAYLQMNSLRPEDTAVYYCAAHRFVVGGNRVEDWRYWGQGTLVTVSS
modifications: PEG40 on the Cys at position 14 of the 27GS linker
notes: 059-27GSC-035; also called PEGylated ABII322 VHH construct; biparatopic PEGylated VHH ABII322

IC50 [27]: 0.52 nM
IC50 [24]: 0.52 nM
EC50 [2]: 1.8 nM
EC50 [4]: 1.8 nM
IC50 [28]: 0.52 nM
EC50 [6]: 1.8 nM
Kd [29]: 0.3 nM
koff [30]: 4e-05 s⁻¹
EC50 [7]: 1.8 nM
IC50 [18]: > 1000 nM
Aggregation inhibition (% inhibition at 26 µM) [8]: 82%
IC50 [19]: 2.3 nM
B7: Fab fragment of monoclonal antibody m266 (Fab, V domains shown)
VH: EVKLVESGGGLVQPGGSLKLSCAVSGFTFSRYSMSWVRQTPEKRLELVAQINSVGNSTYYPDTVKGRFTISRDNAEYTLSLQMSGLRSDDTATYYCASGDYWGQGTTLTVSS
VL: DVVMTQTPLSLPVSLGDQASISCRSSQSLIYSDGNAYLHWFLQKPGQSPKLLIYKVSNRFSGVPDRFSGSGSGTDFTLKISRVETEDLGVYFCSQSTHVPWTFGGGTKLEIK
notes: also called Fab266; m266Fab
